The results in this text go back to US10676749.

What all share (assay): cell_activity
Common to all, as to details: VEGF-A ELISA, 293 cells
(In general: In an ELISA, binding on a coated surface is turned into a signal by an enzyme label.)

For data set [1], the system named is TALE-VP64 VEGF2-3 (synthetic).
The subject of data set [2] is TALE-VP64 VEGF2-2 (synthetic).
Data set [3] relates to TALE-VP64 VEGF2-1 (synthetic).
Data set [4] has as its system TALE-VP64 VEGF2-4 (synthetic).

For “TCCCGCAGCTGACCAGTCGC (double strand) [VEGF2-3 site]”, the activity (fold activation) in data set [1] was over 5.3.
The sequence “TCCCGCAGCTGACCAGTC (double strand) [VEGF2-2 site]” registered an activity (fold activation) in data set [2] of over 5.3.
“TCCCGCAGCTGACCAG (double strand) [VEGF2-1 site]”: the activity (fold activation) in data set [3] is over 5.3.
As to “TCCCGCAGCTGACCAGTCGCGC (double strand) [VEGF2-4 site]”, the activity (fold activation) in data set [4] was over 5.3.
